For one molecule, binding result and Kd results are on record in publication PMC8699518 (Biomolecules, 2021).

The target of assay [1] is T1, E. coli-HuIFN-γ (Homo sapiens, UniProt P01579).
T1 construct: human interferon gamma expressed in E. coli; source: expressed in E. coli
Description: ELISA; indirect ELISA of the hybridoma panel; antigens adsorbed overnight at 4 °C in PBS pH 7.2 at 2 μg/mL, 50 μL/well; anti-mouse immunoglobulin-HRP, OD450. (ELISA stands for enzyme-linked immunosorbent assay.)

Assay [2] has as its target T2, recombinant glycosylated IFN-β (Pharmapark, Moscow, Russia) (Homo sapiens, UniProt P01574, glycosylated).
T2 construct: human interferon beta, glycosylated form (IFN-β-1a); also called IFN-β-1a; IFNβ-1a; source: bought: Pharmapark
As to the kind of experiment: ELISA; Kd by the method of Friguet with the Klotz equation; murine antibody and IFN-β in solution at equilibrium, free antibody measured by ELISA.

T2 sequence (P01574 22-187): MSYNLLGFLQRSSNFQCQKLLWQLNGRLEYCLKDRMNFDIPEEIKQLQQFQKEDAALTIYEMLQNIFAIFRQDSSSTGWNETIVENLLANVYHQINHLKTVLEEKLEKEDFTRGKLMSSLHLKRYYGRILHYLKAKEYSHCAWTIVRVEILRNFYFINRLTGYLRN
T1 sequence (P01579 24-161): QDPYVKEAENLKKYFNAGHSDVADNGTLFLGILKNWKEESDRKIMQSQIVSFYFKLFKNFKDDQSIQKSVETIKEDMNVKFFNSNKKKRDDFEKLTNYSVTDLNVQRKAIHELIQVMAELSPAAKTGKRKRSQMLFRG

B1: murine monoclonal antibody B16 against IFN-β (antibody, V domains shown)
VH: EVKLVESGGGLVQPGGSLKLSCAASGFTFTSYTMSWVRQTPEKRLEWVAYISNGGGSTYYPDTVKGRFTISRDNAKNTLYLQMSSLKSEDTAMYYCARLDWVFAYWGQGTLVTVSA
VL: DIVMTQSHKFMSTSVGDRVSITCKASQDVGTAVAWYQQKPGQSPKLLIYWASTRHTGVPDRFTGSGSGTDFTLTISNVQSEDLADYFCLQYSSFPYTFGGGTKLEIK
notes: VH of murine B16; mouse IgG heavy-chain constant region; VL of murine B16; mouse kappa light-chain constant domain (all L-chains of the panel were of the kappa isotype); Member of the hybridoma panel B1-B21; also called murB16; prototype mouse antibody; source: hybridoma B16
For the molecule B1, the binding result in assay [1] is “no binding”. Also, the Kd (usually the concentration at which binding is half-saturated) in assay [2] was 3.8 nM.
